Source: the domain aggregation screens of Martell et al. (2025)

assay: soluble fraction after stress (log2 fold change); higher = more stays soluble; pooled small domains, quantitative proteomics; conditions: stress: pH 4
Procedure, shortened: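 Following acid stress at pH 4, the amount of each small protein domain still soluble was measured in pooled custom libraries by high-throughput quantitative proteomics. Its fold change, on a log2 scale, is higher when more of the domain stayed soluble. This fold change is taken as a measure of aggregation propensity.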

| Sequence | soluble fraction (log2) |
| --- | --- |
| HMFKLPRTIGTFEDSDVVIGAGKFGPYIMHNKKFVSLPKSEDPLTIGLERAIELISAKREQEKQRH | 0.237 |
| HMDGQPQLLIKNGQLLVSTALKNGMSANDLMFRLRTEGITDIRYVKRAVLEQNGQLTITQVGDD | -0.0398 |
| HMDAAEVEATARAMLRRSALNLLAQREQTAFELKQKLSRRFPEQAALLDEVIERLQEQGLQDDTR | -0.527 |
| HMEDDRMLVWFFRKSIQNGAQSEAEGRPIFEGKDYVHIQQPGERDYIEREAHQGDIGRWPRHWQAYQEGR | -0.359 |
| HMKTALDEAKDFLNGALSKGHRPASDVVDEAKEASISEKTLKRAKLAIGIITRKEGFGSEGKWVWELPAR | 0.0771 |
| HMTAVAAEQQAQDAYRQTAANNLNEIQAKYKLPDSESDDFFTFAYERGFTQEDFIDIGLVDKIMGDYV | -0.203 |
| HMYMWQVEDLLRANELDIENIKKTIIDHYQLDDAQKSELTRWYEDLINMMRLEGVTKEGHLQINK | -1.75 |
| HMRLDSELVSARLHRFMGTNRKPDGEIVEKIAAILEGHPIETLDAFLQSLNGRKIKSYGFFPTVLRREIAN | -0.114 |
| HMPLSDAEKAAAIATQAKERALKLSPEMISYLLRHASRDMRTLSMLVVALDQYTLEQKRPVTLPLLRELLS | -0.0153 |
| HMAEPYDERKVMEQMIPKGKNTIVAHLGHLKDHGETGYLQEALSYLRERESELGFDLKEVRALVHN | -0.223 |
| HMDVQNLTKKNQEFINIVTHQLLQSGKSDEDIQTILAKTLPEIIEKQKQGIPARSFLGAPTAWAAQFI | -0.0313 |
| HMRSSAATMFGRIALKNKLVDEATLKKVMSELPAGADLGAVLVKQGLISEQHAEAIQKKITAHMKSAP | 0.0511 |
| HMSMQIILLDKVVNLGGLGDVVKVKDGYARNYLIPQGKAKRANTANLAEFEARRVELERLAAEQLAQAQA | -0.478 |
| HMLSDLTPGDLVVHATHGIGRFLGIRKLELEGMTKDYITIQYRGNENLYVPVTQMDLVSRYI | -0.975 |
| HMLNDTGAIRAAVEEVLAANEKSVNEYKGGKTQAFQYLIGQSMRALRGKAPAQEVTKLLKELLG | -0.0483 |
| HMETVRLSVDAQGAYYWNEQRVDDSALPDLLREASGRKPQPDLHIRGDKAVRYERVAEAMAAAQRAGLKKI | -0.178 |
| HMGESYQIKDGELLVDIAQRVKPAGMTLRQTINALVAANPRAFRNGNPDLMYRGATLTIPDGDTLRRLAH | 0.0238 |
| HMEQRREEFILLAKELLEKELRKQNLEVHENLKPDVLNDVAKRLGMVSMDDLLAAVGDGKITPGTVVSKIV | -0.389 |
| HMDAAANTLRILKALSESPMSADRLAELLMEEGSGRNPRTIRRYIRALREAGFGVEHREGRYVL | -0.483 |
| HMIEKVNDYVVRFANVNGTGSASANNLFALAIYRMGVPVTPKNIFPSNIQGLPTWFEVRVSGSGYLARRG | 0.129 |
| HMRIAQYRQIENDLLEQINLGYYKKGDLIPTELELSATYHVSRVTVRKATDNLVAKGILQRVAGVGTFVSR | 0.0958 |
| HMDWPDDETIARIYALIKSDISSQARKVMELRFSEGMPFARIAAAMGISETAVYRHLSHALTVIRQKLN | -1.24 |
| HMINEEELLKIENIKRKYPDSKAALMPVLYFFQEKYGFISDDSIKEISQLLNISEVDIKGVVSFYEMFHEK | -1.04 |
| HMQESVTVSAQALRRLLEKGDGDAALLYLALLRHHGTIQPRALAGELRWERPRIEAAEEALRQMGLIA | 0.121 |
| HMAPQVKIPNLVDVSQRQAEAILNSYGLKVGHLIYKPDLAKDAVLGFMFNGRSLKAGDELAKGSSIDLILG | 0.192 |
| HMSVLNLQTDIPKKYTDVLGTSVKGRLNTLVHNVIINSVDRPVIQMSEEVHEAMQGLRIFMFENVYRNPV | 0.22 |
| HMDVSPVRLIREARGLSQVEVAKAAGLSRAAYQNIEVGKTVPRASTMVNIARALGVSMDDLLAPV | 0.0681 |
| HMQEPVHFTRRERQVLSLILSGQATAEIAKTLGIANATVTTYKKSLYSKSGTNSLSRLLIWAMVRR | -0.332 |
| HMLKIVRSREEVESRLYTIYGNVKGRRLYNFYLSLIIDGLDIVKARTSKNVYYTNIRNLKNAGIDFSQKIN | -0.0641 |
| HMDTSKIDYSEFITMLDKGEVESVVLKSDTLTVTLKHGTGMAAQTKTVTLMEDLSELTKRLEKAGVKSFDK | 0.176 |
